The text below walks through data of publication PMC6322289 (2019).

In this assay the target is β-1,3-glucanase (Hevea brasiliensis (endogenous in latex …, UniProt P52407 37-356)). The experiment in a line: SPR. Background: In SPR one partner is held on a chip, and binding of the other changes the refractive index at the surface.
Sequence of β-1,3-glucanase (Hevea brasiliensis (P52407 37-356): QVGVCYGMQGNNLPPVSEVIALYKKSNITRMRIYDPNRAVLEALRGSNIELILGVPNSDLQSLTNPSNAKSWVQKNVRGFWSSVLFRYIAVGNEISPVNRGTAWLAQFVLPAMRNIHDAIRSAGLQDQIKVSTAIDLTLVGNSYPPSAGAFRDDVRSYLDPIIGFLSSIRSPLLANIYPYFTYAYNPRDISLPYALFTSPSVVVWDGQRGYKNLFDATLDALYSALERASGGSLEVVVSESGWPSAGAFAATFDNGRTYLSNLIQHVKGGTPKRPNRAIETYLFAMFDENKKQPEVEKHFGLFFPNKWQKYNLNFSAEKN

One may read the koff as the rate constant with which the complex falls apart. A higher koff goes with fast dissociation. The molecule EQCGRQAGGKLCPNNLCCSQWGWCGSTDEYCSPDHNCQSNCKD (natural protein) [hevein] registered a dissociation rate constant (koff) of 0.013 s⁻¹.

B1: pro-hevein (natural protein)
chain: EQCGRQAGGKLCPNNLCCSQWGWCGSTDEYCSPDHNCQSNCKDSGEGVGGGSASNVLATYHLYNSQDHGWDLNAASAYCSTWDANKPYSWRSKYGWTAFCGPVGAHGQSSCGKCLSVTNTGTGAKTTVRIVDQCSNGGLDLDVNVFRQLDTDGKGYERGHITVNYQFVDCGDSFNPLFSVMKSSVIN
B1 had a koff of 0.0794 s⁻¹.
